Values quoted from earlier work, collected in paper PMC12635586.

Key:
[1] = biological target: Clazakizumab
[2] = biological target: GFRAL (Homo sapiens) (UniProt Q6UXV0)
GFRAL (Homo sapiens), sequence (Q6UXV0 19-351): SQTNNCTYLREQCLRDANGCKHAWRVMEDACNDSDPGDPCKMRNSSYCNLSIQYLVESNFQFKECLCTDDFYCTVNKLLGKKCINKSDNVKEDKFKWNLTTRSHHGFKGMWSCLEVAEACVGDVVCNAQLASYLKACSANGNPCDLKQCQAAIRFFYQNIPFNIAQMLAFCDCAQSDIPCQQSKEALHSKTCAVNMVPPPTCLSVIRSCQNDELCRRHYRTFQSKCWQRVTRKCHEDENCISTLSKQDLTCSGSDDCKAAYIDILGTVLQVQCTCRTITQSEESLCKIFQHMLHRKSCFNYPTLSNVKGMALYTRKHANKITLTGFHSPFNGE

Clazakizumab, sequence (main, as listed by the source, chain 1 of 2): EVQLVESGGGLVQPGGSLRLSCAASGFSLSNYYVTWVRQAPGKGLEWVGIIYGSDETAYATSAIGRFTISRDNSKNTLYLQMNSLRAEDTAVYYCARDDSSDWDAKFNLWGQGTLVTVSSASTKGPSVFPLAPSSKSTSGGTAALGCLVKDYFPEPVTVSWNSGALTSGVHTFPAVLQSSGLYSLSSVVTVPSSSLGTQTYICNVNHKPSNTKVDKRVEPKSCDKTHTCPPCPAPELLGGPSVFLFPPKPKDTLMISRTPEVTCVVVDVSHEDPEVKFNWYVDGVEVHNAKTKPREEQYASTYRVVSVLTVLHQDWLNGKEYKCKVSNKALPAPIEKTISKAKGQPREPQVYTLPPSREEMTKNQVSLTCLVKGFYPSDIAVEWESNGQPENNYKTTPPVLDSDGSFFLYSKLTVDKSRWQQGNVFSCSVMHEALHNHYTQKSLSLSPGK
Clazakizumab, sequence (partner, as listed by the source, chain 2 of 2): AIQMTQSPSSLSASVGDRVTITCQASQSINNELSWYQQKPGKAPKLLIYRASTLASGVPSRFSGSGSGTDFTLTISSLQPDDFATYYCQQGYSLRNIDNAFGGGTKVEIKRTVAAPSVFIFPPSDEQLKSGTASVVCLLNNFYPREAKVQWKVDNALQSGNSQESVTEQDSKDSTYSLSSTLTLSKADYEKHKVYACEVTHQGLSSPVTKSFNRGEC
Interleukin-6, sequence (P05231 30-212): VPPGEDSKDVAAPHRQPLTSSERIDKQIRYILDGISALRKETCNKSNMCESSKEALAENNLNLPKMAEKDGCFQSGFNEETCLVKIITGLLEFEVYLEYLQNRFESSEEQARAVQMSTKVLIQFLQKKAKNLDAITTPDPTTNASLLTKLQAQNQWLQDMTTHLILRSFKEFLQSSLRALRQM
Growth differentiation factor-15, sequence (Q99988 195-308): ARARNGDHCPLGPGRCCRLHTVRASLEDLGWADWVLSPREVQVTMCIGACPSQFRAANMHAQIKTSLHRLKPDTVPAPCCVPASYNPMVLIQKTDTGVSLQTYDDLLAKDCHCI

Substance	Kd [1] [pM]	Kd [2] [nM]
Interleukin-6 (from UniProt P05231)	4	–
Growth differentiation factor-15 (from UniProt Q99988)	–	8
